In patent US20260250396A1 (TRUEBINDING, published 2026):

Biological target: T1, human Galectin-3 (human, UniProt P17931 1-250, limits assumed)
T1 construct: also called Gal-3; Gal3
Experiment: in vitro affinity; method and format not stated

T1 sequence (P17931 whole entry): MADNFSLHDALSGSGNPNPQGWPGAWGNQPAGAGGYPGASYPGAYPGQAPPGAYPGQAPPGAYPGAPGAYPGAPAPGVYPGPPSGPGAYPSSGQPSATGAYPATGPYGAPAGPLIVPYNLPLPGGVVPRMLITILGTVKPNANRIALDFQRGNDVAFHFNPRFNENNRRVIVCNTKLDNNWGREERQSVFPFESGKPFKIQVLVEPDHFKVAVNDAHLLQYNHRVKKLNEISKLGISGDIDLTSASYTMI

B1: TB006 (antibody, human IgG4 S228P, kappa, V domains shown)
VH: QVQLVQSGAEVKKPGASVKVSCKASGYSFTNYYMHWVRQAPGQRLEWMGWIYPGSGNTNYNEKFQGRVTITADTSASTAYMELSSLRSEDTAVYYCSTAPGGFDVWGQGTTVTVSS
VL: DIVMTQTPLSLSVTPGQPASISCKSSKSLLHSDGITYLYWYLQKPGQSPQLLIYRMSNLASGVPDRFSGSGSGTDFTLKISRVEAEDVGVYYCAQMLEFPLTFGQGTKLEIKR
notes: also called anti-Gal3 antibody; humanized IgG4 (S228P) type monoclonal antibody
Kd: 8.4 nM
